Wild-type normalized NLR, mean over SRC kinases data for seven molecules are collected here from publication PMC10939263.

Where a chain is given by its changes, count along the chain named. Numbers in names are those of the source.

B1: SKAP1 D120K mutant, N2-fused (natural protein)
chain: MQAAALPEEIRWLLEDAEEFLAEGLRNENLSAVARDHRDHILRGFQQIKARYYWDFQPQGGDIGQDSSDDNHSGTLGLSLTSDAPFLSDYQDEGMEDIVKGAQELDNVIKQGYLEKKSKKHSFFGSEWQKRWCVVSRGLFYYYANEKSKQPKGTFLIKGYGVRMAPHLRRDSKKESCFELTSQDRRSYEFTATSPAEARDWVDQISFLLKDLSSLTIPYEEDEEEEEKEETYDDIDGFDSPSCGSQCRPTILPGSVGIKEPTEEKEEEDIYEVLPDEEHDLEEDESGTRRKGVDYASYYQGLWDCHGDQPDELSFQRGDLIRILSKEYNMYGWWVGELNSLVGIVPKEYLTTAFEVEER
B2: SKAP1 W333K mutant, N2-fused (natural protein)
chain: B1 chain with K120D, W333K
B3: SKAP1 ΔSH3 mutant, N2-fused (domain or fragment)
chain: MQAAALPEEIRWLLEDAEEFLAEGLRNENLSAVARDHRDHILRGFQQIKARYYWDFQPQGGDIGQDSSDDNHSGTLGLSLTSDAPFLSDYQDEGMEDIVKGAQELDNVIKQGYLEKKSKDHSFFGSEWQKRWCVVSRGLFYYYANEKSKQPKGTFLIKGYGVRMAPHLRRDSKKESCFELTSQDRRSYEFTATSPAEARDWVDQISFLLKDLSSLTIPYEEDEEEEEKEETYDDIDGFDSPSCGSQCRPTILPGSVGIKEPTEEKEEEDIYEVLPDEEHDLEEDESGTRRK
B4: SKAP1 ΔLink1PH deletion mutant, N2-fused (natural protein)
chain: MQAAALPEEIRWLLEDAEEFLAEGLRNENLSAVARDHRDHILRGFQQIKARYYWDFQPQGGDIGQDDLSSLTIPYEEDEEEEEKEETYDDIDGFDSPSCGSQCRPTILPGSVGIKEPTEEKEEEDIYEVLPDEEHDLEEDESGTRRKGVDYASYYQGLWDCHGDQPDELSFQRGDLIRILSKEYNMYGWWVGELNSLVGIVPKEYLTTAFEVEER
B5: SKAP1 ΔPH deletion mutant, N2-fused (natural protein)
chain: MQAAALPEEIRWLLEDAEEFLAEGLRNENLSAVARDHRDHILRGFQQIKARYYWDFQPQGGDIGQDSSDDNHSGTLGLSLTSDAPFLSDYQDEGMEDIVKGAQELDDLSSLTIPYEEDEEEEEKEETYDDIDGFDSPSCGSQCRPTILPGSVGIKEPTEEKEEEDIYEVLPDEEHDLEEDESGTRRKGVDYASYYQGLWDCHGDQPDELSFQRGDLIRILSKEYNMYGWWVGELNSLVGIVPKEYLTTAFEVEER
B6: SKAP1 Link2SH3 mutant, N2-fused (domain or fragment)
chain: SSLTIPYEEDEEEEEKEETYDDIDGFDSPSCGSQCRPTILPGSVGIKEPTEEKEEEDIYEVLPDEEHDLEEDESGTRRKGVDYASYYQGLWDCHGDQPDELSFQRGDLIRILSKEYNMYGWWVGELNSLVGIVPKEYLTTAFEVEE
B7: SKAP1 DomDIM mutant, N2-fused (domain or fragment)
chain: MQAAALPEEIRWLLEDAEEFLAEGLRNENLSAVARDHRDHILRGFQQIKARYYWDFQPQGGDIGQDSSDDNHSGTLGLSLTSDAPFLSDYQDEGMEDIV

The target in the first assay is N1-fused SRC kinases. Nature of the assay: split reporter (BiFC, NanoBiT); Gaussia princeps luciferase complementation assay in human HEK293T cells; Gluc2 at the N terminus of SKAP1 or SKAP2 (N2), Gluc1 at the N terminus (N1) or C terminus (C1) of the SRC kinase; 100 ng plasmid pair, PEI; luminescence read in lysate one day later; normalized luminescence ratio (NLR), given relative to wild type or to SKAP2.
B1: the wild-type normalized NLR, mean over SRC kinases was found to be 1.17.

As for B2, the wild-type normalized NLR, mean over SRC kinases was determined as 1.16.

As for B3, the wild-type normalized NLR, mean over SRC kinases is 1.51.

Consider B4, for which the wild-type normalized NLR, mean over SRC kinases was determined as 1.57.

Consider B5, for which the wild-type normalized NLR, mean over SRC kinases was determined as 1.35.

B6: the wild-type normalized NLR, mean over SRC kinases was found to be 0.29.

For the molecule B7, the wild-type normalized NLR, mean over SRC kinases was determined as 0.11.

For a further assay, the target named is C1-fused SRC kinases. The assay is described as above.
In the case of B1, the wild-type normalized NLR, mean over SRC kinases is 1.49.

As to B2, the wild-type normalized NLR, mean over SRC kinases worked out at 1.24.

Turning to B3, the wild-type normalized NLR, mean over SRC kinases came to 2.53.

B4: the wild-type normalized NLR, mean over SRC kinases is 0.96.

Turning to B5, the wild-type normalized NLR, mean over SRC kinases was found to be 0.87.

For B6, the wild-type normalized NLR, mean over SRC kinases amounted to 0.51.

For B7, the wild-type normalized NLR, mean over SRC kinases came to 0.32.
